Experimental data taken from patent US20230212549A1 (3B PHARMACEUTICALS, published 2023).
Values joined by “and” are separate entries in the source; they are usually repeats but may differ in a detail not shown here. Equal values may be shown once. Numbered stars: 1 amine (or outer) side, 2 acyl side, 3 side chain; on linkers, the order of the positions; unused ones are H or OH. Bridge positions count the residues as written; N and C are the ends. Square brackets hold non-standard residues; d marks the D form. Primed or numbered codes have the meaning given here. * marks the point of attachment. tMeBn(DOTA-PP) = 1,3,5-trimethylbenzylidene, two thioethers to Cys, third CH2 bound to one N of piperazine whose other N bears DOTA, O=C(O)CN1CCN(CC(=O)O)CCN(CC(=O)N2CCN(Cc3cc(C[*:1])cc(C[*:2])c3)CC2)CCN(CC(=O)O)CC1; Ttds = 1,13-diamino-4,7,10-trioxatridecan-succinamic acid, O=C(CCC(=O)[*:2])NCCCOCCOCCOCCCN[*:1]; N4Ac = 6-Carboxy-1,4,8,11-tetraazaundecane, an N4-chelator, NCCNCC(CNCCN)C(=O)*; APAc = 2-(4-(Amino)piperidin-1-yl)acetic acid, O=C(CN1CCC(N[*:1])CC1)[*:2]; 3MeBn(3) = 3-methylbenzylidene (m-xylylene), from α,α′-dibromo-m-xylene; DOTA = O=C(O)CN1CCN(CC(=O)O)CCN(CC(=O)*)CCN(CC(=O)O)CC1; mXylylene = c1cc(C[*:1])cc(C[*:2])c1; Hyp = O=C(O)[C@@H]1C[C@@H](O)CN1; PentylNH‑urea = CCCCCNC(=O)*; Nle = CCCC[C@H](N)C(=O)O; Hexanoyl = CCCCCC(=O)*

Tests used:
[1] = target: Recombinant human FAP (R&D systems, #3715-SE) (human, UniProt Q12884 26-760); test: cell-based or functional assay
[2] = target: T1, fibroblast activation protein (FAP) on FAP-expressing human WI-38 fibroblasts (human, UniProt Q12884 1-760); test: competitive FACS, WI-38 cells, vs Cy5 tracer m3; B = pIC50 7.1-8.0
T1 construct: also called human FAP

[3] = target: Recombinant human FAP (R&D systems, #3715-SE) (human, UniProt Q12884 26-760); test: cell-based or functional assay; remark: listed apart in the source

Row | pIC50 Category (Activity) [1] | pIC50 Category (FACS) [2] | pIC50 Category (Activity) [3] [pIC50] | Binder
1 | 7.1 pIC50 and 8 pIC50 | 7.1 pIC50 and 8 pIC50 | – | Hexanoyl-CP[Hyp]TEFC-NH2 (linker 1-7 via mXylylene; SMILES CCCCCC(=O)N[C@H]1CSCc2cccc(c2)CSC[C@@H](C(N)=O)NC(=O)[C@H](Cc2ccccc2)NC(=O)[C@H](CCC(=O)O)NC(=O)[C@H]([C@@H](C)O)NC(=O)[C@@H]2C[C@@H](O)CN2C(=O)[C@@H]2CCCN2C1=O, also called 3BP-3366) [Hex-[Cys(3MeBn)-Pro-Hyp-Thr-Glu-Phe-Cys]-NH2]
2 | > 8 pIC50 | 7.1 pIC50 and 8 pIC50 | – | {DOTA}-[Ttds][Nle]CPPTEFCD-NH2 (linker 3-9 via mXylylene; SMILES CCCC[C@H](NC(=O)CCC(=O)NCCCOCCOCCOCCCNC(=O)CN1CCN(CC(=O)O)CCN(CC(=O)O)CCN(CC(=O)O)CC1)C(=O)N[C@H]1CSCc2cccc(c2)CSC[C@@H](C(=O)N[C@@H](CC(=O)O)C(N)=O)NC(=O)[C@H](Cc2ccccc2)NC(=O)[C@H](CCC(=O)O)NC(=O)[C@H]([C@@H](C)O)NC(=O)[C@@H]2CCCN2C(=O)[C@@H]2CCCN2C1=O, also called 3BP-3320) [DOTA-Ttds-Nle-[Cys(3MeBn)-Pro-Pro-Thr-Glu-Phe-Cys]-Asp-NH2]
3 | – | – | ≤ 6 | Hexanoyl-CFQTPPCD-NH2 (linker 1-7 via tMeBn(DOTA-PP); SMILES CCCCCC(=O)N[C@H]1CSCc2cc(cc(CN3CCN(C(=O)CN4CCN(CC(=O)O)CCN(CC(=O)O)CCN(CC(=O)O)CC4)CC3)c2)CSC[C@@H](C(=O)N[C@@H](CC(=O)O)C(N)=O)NC(=O)[C@@H]2CCCN2C(=O)[C@@H]2CCCN2C(=O)[C@H]([C@@H](C)O)NC(=O)[C@H](CCC(N)=O)NC(=O)[C@H](Cc2ccccc2)NC1=O) [Hex-[Cys(tMeBn(DOTA-PP))-Phe-Gln-Thr-Pro-Pro-Cys]-Asp-NH2]
4 | 7.1 pIC50 and 8 pIC50 | 7.1 pIC50 and 8 pIC50 | – | {DOTA}-[Ttds][Nle]CPPTEFC-NH2 (linker 3-9 via mXylylene; SMILES CCCC[C@H](NC(=O)CCC(=O)NCCCOCCOCCOCCCNC(=O)CN1CCN(CC(=O)O)CCN(CC(=O)O)CCN(CC(=O)O)CC1)C(=O)N[C@H]1CSCc2cccc(c2)CSC[C@@H](C(N)=O)NC(=O)[C@H](Cc2ccccc2)NC(=O)[C@H](CCC(=O)O)NC(=O)[C@H]([C@@H](C)O)NC(=O)[C@@H]2CCCN2C(=O)[C@@H]2CCCN2C1=O, also called 3BP-3319) [DOTA-Ttds-Nle-[Cys(3MeBn)-Pro-Pro-Thr-Glu-Phe-Cys]-NH2]
5 | > 8 pIC50 | 7.1 pIC50 and 8 pIC50 | – | {PentylNH‑urea}-CPPTQFCD-NH2 (linker 1-7 via mXylylene; SMILES CCCCCNC(=O)N[C@H]1CSCc2cccc(c2)CSC[C@@H](C(=O)N[C@@H](CC(=O)O)C(N)=O)NC(=O)[C@H](Cc2ccccc2)NC(=O)[C@H](CCC(N)=O)NC(=O)[C@H]([C@@H](C)O)NC(=O)[C@@H]2CCCN2C(=O)[C@@H]2CCCN2C1=O, also called 3BP-3425) [PentylNH-urea-[Cys(3MeBn)-Pro-Pro-Thr-Gln-Phe-Cys]-Asp-NH2]
6 | 7.1 pIC50 and 8 pIC50 | 7.1 pIC50 and 8 pIC50 | – | Hexanoyl-CPPTQFCD-NH2 (linker 1-7 via tMeBn(DOTA-NH), also called 3BP-3556) [Hex-[Cys(tMeBn(DOTA-NH))-Pro-Pro-Thr-Gln-Phe-Cys]-Asp-NH2]
7 | – | – | ≤ 6 | N4Ac-[APAc][Nle]CPPTEFC-OH (linker 3-9 via 3MeBn(3)) [N4Ac-APAc-Nle-[Cys-(3MeBn)-Pro-Pro-Thr-Glu-Phe-Cys]-OH]
8 | – | – | ≤ 6 | Hexanoyl-CTQPFPCD-NH2 (linker 1-7 via tMeBn(DOTA-PP); SMILES CCCCCC(=O)N[C@H]1CSCc2cc(cc(CN3CCN(C(=O)CN4CCN(CC(=O)O)CCN(CC(=O)O)CCN(CC(=O)O)CC4)CC3)c2)CSC[C@@H](C(=O)N[C@@H](CC(=O)O)C(N)=O)NC(=O)[C@@H]2CCCN2C(=O)[C@H](Cc2ccccc2)NC(=O)[C@@H]2CCCN2C(=O)[C@H](CCC(N)=O)NC(=O)[C@H]([C@@H](C)O)NC1=O) [Hex-[Cys(tMeBn(DOTA-PP))-Thr-Gln-Pro-Phe-Pro-Cys]-Asp-NH2]
9 | 7.1 pIC50 and 8 pIC50 | 7.1 pIC50 and 8 pIC50 | – | Ac-MCPPTEFCAHFRD-NH2 (linker 2-8 via mXylylene; SMILES CSCC[C@H](NC(C)=O)C(=O)N[C@H]1CSCc2cccc(c2)CSC[C@@H](C(=O)N[C@@H](C)C(=O)N[C@@H](Cc2c[nH]cn2)C(=O)N[C@@H](Cc2ccccc2)C(=O)N[C@@H](CCCNC(=N)N)C(=O)N[C@@H](CC(=O)O)C(N)=O)NC(=O)[C@H](Cc2ccccc2)NC(=O)[C@H](CCC(=O)O)NC(=O)[C@H]([C@@H](C)O)NC(=O)[C@@H]2CCCN2C(=O)[C@@H]2CCCN2C1=O, also called 3BP-3194) [Ac-Met-[Cys(3MeBn)-Pro-Pro-Thr-Glu-Phe-Cys]-Ala-His-Phe-Arg-Asp-NH2]
